Substitutions are numbered along the chain they refer to. Values belong to the binder of their own block, whether it stands above or below them.
Assays:
[1] = biological target: Matrix-associated proTGFβ1 (hLTBP1-proTGFβ1 and hLTBP3-proTGFβ1 complexes); experiment: MSD-SET; cell average KD over ECM average KD
[2] = biological target: Matrix-associated proTGFβ1 (hLTBP1-proTGFβ1 and hLTBP3-proTGFβ1 complexes); experiment: Octet (BLI); cell average KD over ECM average KD
[3] = biological target: Cell-associated proTGFβ1 (hGARP-proTGFβ1 and hLRRC33-proTGFβ1 complexes); experiment: Octet (BLI); IgG1 from yeast; mean of hGARP and hLRRC33
[4] = biological target: Matrix-associated proTGFβ1 (hLTBP1-proTGFβ1 and hLTBP3-proTGFβ1 complexes); experiment: Octet (BLI); IgG1 from yeast; mean of hLTBP1 and hLTBP3
[5] = biological target: Cell-associated proTGFβ1 (hGARP-proTGFβ1 and hLRRC33-proTGFβ1 complexes); experiment: MSD-SET; IgG4 from mammalian cells; mean of hGARP and hLRRC33
[6] = biological target: Matrix-associated proTGFβ1 (hLTBP1-proTGFβ1 and hLTBP3-proTGFβ1 complexes); experiment: MSD-SET; IgG4 from mammalian cells; mean of hLTBP1 and hLTBP3

B3: Ab12 (antibody, V domains shown)
VH: QVQLVESGGGVVQPGRSLRLSCAASGFTFSDYAMVWVRQAPGKGLEWVSAISGSGFTTYYADSVKGRFTISRDNSKNTLYLQMNSLRAEDTAVYYCARVSSGHWDFDYWGQGTLVTVSS
VL: DIQLTQSPSSLSASVGDRVTITCRASQSISSYLNWYQQKPGKAPKLLIYAASNLQSGVPSRFSGSGSGTDFTLTISSLQPEDFATYYCQQTYTVPLTFGGGTKVEIK
G/D (fold bias) [1]: 3.4 fold
G/D (fold bias) [2]: 22.9 fold
Cell AVRG (average KD) [3]: 3.89 nM
ECM AVRG (average KD) [4]: 0.17 nM
Cell AVRG (average KD) [5]: 2.45 nM
ECM AVRG (average KD) [6]: 0.72 nM

B5: Ab14 (antibody, IgG1, V domains shown)
VH: B3 VH with Q1E, V5L, V11L, R16G, D31A, V35T, S54T, F56G, T57S
VL: B3 VL with L4M, N53S, T91V, T93D, V94P
G/D (fold bias) [2]: 17.4 fold
Cell AVRG (average KD) [3]: 5.92 nM
ECM AVRG (average KD) [4]: 0.341 nM

B6: Ab11 (antibody, V domains shown)
VH: B3 VH with Q1E, V5L, V11L, R16G, S30R, D31N, V35S, A50S, F56G, T57A
VL: B3 VL
G/D (fold bias) [1]: 3.87 fold
G/D (fold bias) [2]: 4.35 fold
Cell AVRG (average KD) [3]: 0.699 nM
ECM AVRG (average KD) [4]: 0.161 nM
Cell AVRG (average KD) [5]: 4.65 nM
ECM AVRG (average KD) [6]: 1.2 nM

B7: Ab13 (antibody, IgG1, V domains shown)
VH: EVQLLESGGGLVQPGGSLRLSCAASGFTFADYAMTWVRQAPGKGLEWVSAISSFASAIYYADSVKGRFTISRDNSKNTLYLQMNSLRAEDTAVYYCARVSSGHWDFDYWGQGTLVTVSS
VL: B3 VL with L4M, N53S, T91V, T93D, V94P
G/D (fold bias) [2]: 21.7 fold
Cell AVRG (average KD) [3]: 5.7 nM
ECM AVRG (average KD) [4]: 0.263 nM

B10: Ab15 (antibody, IgG1, V domains shown)
VH: B3 VH with Q1E
VL: B3 VL
G/D (fold bias) [2]: 24.2 fold
Cell AVRG (average KD) [3]: 3.86 nM
ECM AVRG (average KD) [4]: 0.159 nM

B11: Ab2 (antibody, V domains shown)
VH: B7 VH with S53G, F54S, A55G, S56A, I58T, Y60F
VL: B3 VL
Cell AVRG (average KD) [3]: 0.643 nM
ECM AVRG (average KD) [4]: 0.157 nM
Cell AVRG (average KD) [5]: 2.3 nM
ECM AVRG (average KD) [6]: 0.266 nM

More lines, now with the values ahead:

G/D (fold bias) [1]: 1.68 fold
G/D (fold bias) [2]: 34.5 fold
Cell AVRG (average KD) [3]: 5.95 nM
ECM AVRG (average KD) [4]: 0.172 nM
Cell AVRG (average KD) [5]: 4.75 nM
ECM AVRG (average KD) [6]: 2.83 nM
B1: Ab19 (antibody, V domains shown)
VH: B3 VH with D31S, Y32F, V35T, F56A, T57A, Y60F, Y108E
VL: B3 VL

G/D (fold bias) [2]: 24.3 fold
Cell AVRG (average KD) [3]: 4.64 nM
ECM AVRG (average KD) [4]: 0.191 nM
B2: Ab17 (antibody, IgG1, V domains shown)
VH: B3 VH with Q1E, V5L, R16G, D31S, Y32F, V35T, F56A, T57A, Y60F
VL: B3 VL

G/D (fold bias) [2]: 15.3 fold
Cell AVRG (average KD) [3]: 2.4 nM
ECM AVRG (average KD) [4]: 0.157 nM
B4: Ab16 (antibody, IgG1, V domains shown)
VH: B3 VH with Q1E, V5L, V11L, R16G, D31N, V35S
VL: B3 VL

G/D (fold bias) [2]: 22 fold
Cell AVRG (average KD) [3]: 6.26 nM
ECM AVRG (average KD) [4]: 0.284 nM
B8: Ab18 (antibody, IgG1, V domains shown)
VH: B3 VH with F56A, T57A, Y60F, R98T
VL: B3 VL

G/D (fold bias) [1]: 6.75 fold
G/D (fold bias) [2]: 4.42 fold
Cell AVRG (average KD) [3]: 0.715 nM
ECM AVRG (average KD) [4]: 0.162 nM
Cell AVRG (average KD) [5]: 1.35 nM
ECM AVRG (average KD) [6]: 0.2 nM
B9: Ab20 (antibody, V domains shown)
VH: B7 VH with A30S, D31A, S53G, F54S, A55G, S56G, A57V, I58T, F106Y
VL: B3 VL
